The target of experiment [1] is T1, human PCSK9 (PCSK9 antigen, SEQ ID NO. 53) (human, UniProt A8T644 31-152; Q8NBP7 153-692, Biotin-labelled on amines in the MSD-SET and sorting experiments; positions not given.).
T1 construct: Biotin-labelled in MSD-SET; also called PCSK9-WT; PCSK9 protein
Put plainly: BLI (ForteBio), IgG on AHQ sensor, 100 nM antigen. (In general: BLI is a label-free optical method that tracks binding on a fibre tip over time.)

Experiment [2] concerns the target T2, murine PCSK-9 (murine, UniProt Q80W65 35-694).
T2 construct: also called mouse PCSK9
The experiment can be described thus: BLI (ForteBio), IgG on AHQ sensor, 100 nM antigen.

Experiment [3] deals with T1, human PCSK9 (PCSK9 antigen, SEQ ID NO. …). Put plainly: cell-based or functional assay.
Experiment [4] has the same target. Put plainly: MSD-SET, Fab with biotin-PCSK9 in solution, IgG on plate, pH 7.4.
Experiment [5] concerns the target T2, murine PCSK-9. Described as above.
Experiment [6] concerns the target T1, human PCSK9 (PCSK9 antigen, SEQ ID NO. …). The experiment can be described thus: MSD-SET, Fab with biotin-PCSK9 in solution, IgG on plate, pH 6.0.
Experiment [7] has the same target. Put plainly: flow cytometry, PCSK9 left on CHO-LDLR cells (anti-His-FITC) after premix with 1 nM antibody.
Experiment [8] shares this target. The experiment can be described thus: flow cytometry, PCSK9 left on CHO-LDLR cells (anti-His-FITC) after premix with 0.1 nM antibody.
For experiment [9] the target is unchanged. The experiment can be described thus: flow cytometry, PCSK9 left on CHO-LDLR cells (anti-His-FITC) after premix with 100 nM antibody. A general note: A flow cytometer gives signals particle by particle.
Experiment [10] shares this target. The experiment can be described thus: flow cytometry, PCSK9 left on CHO-LDLR cells (anti-His-FITC) after premix with 1000 nM antibody.
The target is the same in experiment [11]. Put plainly: flow cytometry, PCSK9 left on CHO-LDLR cells (anti-His-FITC) after premix with 10 nM antibody.

The source of these data is patent US20200087416A1 (Innovent, published 2020).
For BODIPY-LDL uptake by HepG2 cells, fluorescence, 16.8 nM, replicate 1 in this document: unit not given here.
For BODIPY-LDL uptake by HepG2 cells, fluorescence, 16.8 nM, replicate 2 in this document: unit not given here.
For BODIPY-LDL uptake by HepG2 cells, fluorescence, 4.2 nM, replicate 1 in this document: unit not given here.
For BODIPY-LDL uptake by HepG2 cells, fluorescence, 4.2 nM, replicate 2 in this document: unit not given here.
For BODIPY-LDL uptake by HepG2 cells, fluorescence, 66.7 nM, replicate 1 in this document: unit not given here.
For BODIPY-LDL uptake by HepG2 cells, fluorescence, 66.7 nM, replicate 2 in this document: unit not given here.

B1: ADI-02396 (antibody, human IgG2, kappa, V domains shown)
VH: QLQLQESGPGLVKPSETLSLTCTVSGGSISSSSYYWGWIRQPPGKGLEWIGSIYYSGSTYYNPSLKSRVTISVDTSKNQFSLKLSSVTAADTAVYYCAREGSGVVPAAGPNWFDPWGQGTLVTVSS
VL: EIVLTQSPATLSLSPGERATLSCRASQSVSSYLAWYQQKPGQAPRLLIYDASNRATGIPARFSGSGSGTDFTLTISSLEPEDFAVYYCQQRRNWFTFGGGTKVEIKR
notes: IgG; also called parent antibody
With B1, the dissociation constant Kd (usually the equilibrium constant for the complex coming apart) in experiment [1] turned out to be 9500 pM. Moreover, the dissociation constant Kd in [2] was 78300 pM. In addition, in [3], the “BODIPY-LDL uptake by HepG2 cells, fluorescence, 4.2 nM, replicate 1” value (“BODIPY-LDL uptake … 4.2 nM, replicate 1” for short) amounted to 0.366; the “BODIPY-LDL uptake by HepG2 cells, fluorescence, 4.2 nM, replicate 2” value (shortened to “BODIPY-LDL uptake … 4.2 nM, replicate 2”) amounted to 0.352; the “BODIPY-LDL uptake by HepG2 cells, fluorescence, 16.8 nM, replicate 1” value (“BODIPY-LDL uptake … 16.8 nM, replicate 1” below) came to 0.404; the “BODIPY-LDL uptake by HepG2 cells, fluorescence, 16.8 nM, replicate 2” value (shortened to “BODIPY-LDL uptake … 16.8 nM, replicate 2”) worked out at 0.341. In [3], the “BODIPY-LDL uptake by HepG2 cells, fluorescence, 66.7 nM, replicate 1” value (“BODIPY-LDL uptake … 66.7 nM, replicate 1” for short) was 0.432 and the “BODIPY-LDL uptake by HepG2 cells, fluorescence, 66.7 nM, replicate 2” value (“BODIPY-LDL uptake … 66.7 nM, replicate 2” below) amounted to 0.401.

B2: ADI-10088 Fab (Fab, V domains shown)
VH: QLQLQESGPGLVKPSETLSLTCTVSGGSIGSSSYYWAWIRQPPGKGLEWIGSINYRGSTYYNPSLKSRVTISVDTSKNQFSLKLSSVTAADTAVYYCARENSGVVPAAGPNWFDPWGQGTLVTVSS
VL: EIVLTQSPATLSLSPGERATLSCRASQSVSSYLAWYQQKPGQAPRLLIYDASNRATGIPARFSGSGSGTDFTLTISSLEPEDFAVYYCQQRRNWFTFGGGTKVEIKR
As to B2, the Kd was 10 pM in experiment [4], 87 pM in [5] and 16 pM in experiment [6].

B3: ADI-10090 (antibody, human IgG2, kappa, V domains shown)
VH: QLQLQESGPGLVKPSETLSLTCTVSGGSIWSSSYYWTWIRQPPGKGLEWIGSINYRGSTYYNPSLKSRVTISVDTSKNQFSLKLSSVTAADTAVYYCARENSGVVPAAGPNWFDPWGQGTLVTVSS
VL: EIVLTQSPATLSLSPGERATLSCRASQSVSSYLAWYQQKPGQAPRLLIYDASNRATGIPARFSGSGSGTDFTLTISSLEPEDFAVYYCQQRRNWFTFGGGTKVEIKR
notes: IgG
In the case of B3, the “Fluorescence Signal Value” in experiment [7] was determined as 6750; in [8] it was 6810; in experiment [9], 4810; in [10], 4820; in experiment [11], 5810. The values for the equilibrium dissociation constant (Kd) in experiment [1] and in experiment [2] were 352 pM and 674 pM, respectively.

B4: ADI-10086 (antibody, human IgG2, kappa, V domains shown)
VH: QLQLQESGPGLVKPSETLSLTCTVSGGSIRSSAYYWGWIRQPPGKGLEWIGSINYRGSTYYNPSLKSRVTISVDTSKNQFSLKLSSVTAADTAVYYCARENSGVVPAAGPNWFGPWGQGTLVTVSS
VL: EIVLTQSPATLSLSPGERATLSCRASQSVSSYLAWYQQKPGQAPRLLIYDASNRATGIPARFSGSGSGTDFTLTISSLEPEDFAVYYCQQRRNWFTFGGGTKVEIKR
notes: IgG
Regarding B4, the “Fluorescence Signal Value” in experiment [7] was 6920; in experiment [8] it was 6600; in experiment [9], 5130; in [10] it was 5270; in [11] it was 5830. Moreover, the dissociation constant (Kd) in [1] stood at 336 pM; in experiment [2] it was 607 pM.

B5: ADI-09112 Fab (Fab, V domains shown)
VH: QLQLQESGPGLVKPSETLSLTCTVSGGSISSSSYYWGWIRQPPGKGLEWIGSIYYSGSTYYNPFLKSRVTISVDTSKNQFSLKLSSVTAADTAVYYCARENSGVVPAAGPNWFGPWGQGTLVTVSS
VL: EIVLTQSPATLSLSPGERATLSCRASQSVSSYLAWYQQKPGQAPRLLIYDASNRATGIPARFSGSGSGTDFTLTISSLEPEDFAVYYCQQRRNWFTFGGGTKVEIKR
With B5, the values for the dissociation constant Kd in experiment [4] and in experiment [5] were 220 pM and 1200 pM, respectively.

B6: Lodelcizumab (antibody, V domains shown)
VH: QVQLVQSGAEVKKPGASVKVSCKASGYTFSTMYMSWVRQAPGQGLEWMGRIDPANEHTNYAQKFQGRVTMTRDTSISTAYMELSRLTSDDTAVYYCARSYYYYNMDYWGQGTLVTVSS
VL: QIVLTQSPATLSVSPGERATLSCRASQSVSYMHWYQQKPGQAPRLLIYGVFRRATGIPDRFSGSGSGTDFTLTIGRLEPEDFAVYYCLQWSSDPPTFGQGTKLEIK
On to B6, for which the “Fluorescence Signal Value” in experiment [7] amounted to 8760. Also, the Kd in experiment [1] came out at 1510 pM. Also, the “Fluorescence Signal Value” in experiment [8] turned out to be 8400. In addition, the “Fluorescence Signal Value” in experiment [9] turned out to be 8760. In experiment [3], the “BODIPY-LDL uptake … 4.2 nM, replicate 1” value worked out at 0.318; the “BODIPY-LDL uptake … 4.2 nM, replicate 2” value is 0.352; the “BODIPY-LDL uptake … 16.8 nM, replicate 1” value turned out to be 0.317; the “BODIPY-LDL uptake … 16.8 nM, replicate 2” value worked out at 0.314. Besides, in experiment [3], the “BODIPY-LDL uptake … 66.7 nM, replicate 1” value is 0.33 and the “BODIPY-LDL uptake … 66.7 nM, replicate 2” value is 0.312. Moreover, the “Fluorescence Signal Value” in experiment [10] was 7330. Besides, the “Fluorescence Signal Value” in experiment [11] was found to be 7330.

B7: Alirocumab (antibody, V domains shown)
VH: EVQLVESGGGLVQPGGSLRLSCAASGFTFNNYAMNWVRQAPGKGLDWVSTISGSGGTTNYADSVKGRFIISRDSSKHTLYLQMNSLRAEDTAVYYCAKDSNWGNFDLWGRGTLVTVSS
VL: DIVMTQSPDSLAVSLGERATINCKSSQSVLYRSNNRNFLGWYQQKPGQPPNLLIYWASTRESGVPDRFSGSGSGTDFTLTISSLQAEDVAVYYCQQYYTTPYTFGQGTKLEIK
As for B7, the “Fluorescence Signal Value” stood at 6980 in [7]; 7170 in experiment [8]; 4950 in [9]; 4930 in experiment [10]; 5750 in experiment [11]. For the same molecule, the figures for the dissociation constant Kd in experiment [1] and in experiment [2] were 30.1 pM and 2660 pM, respectively. The “BODIPY-LDL uptake … 4.2 nM, replicate 1” value in experiment [3] came out at 0.364. In experiment [3], the “BODIPY-LDL uptake … 4.2 nM, replicate 2” value worked out at 0.37. Besides, the “BODIPY-LDL uptake … 16.8 nM, replicate 1” value in experiment [3] amounted to 0.396. Besides, in experiment [3], the “BODIPY-LDL uptake … 16.8 nM, replicate 2” value came to 0.392. Besides, in experiment [3], the “BODIPY-LDL uptake … 66.7 nM, replicate 1” value stood at 0.686. In addition, the “BODIPY-LDL uptake … 66.7 nM, replicate 2” value in experiment [3] came to 0.716.

B8: Bococizumab (antibody, V domains shown)
VH: QVQLVQSGAEVKKPGASVKVSCKASGYTFTSYYMHWVRQAPGQGLEWMGEISPFGGRTNYNEKFKSRVTMTRDTSTSTVYMELSSLRSEDTAVYYCARERPLYASDLWGQGTTVTVSS
VL: DIQMTQSPSSLSASVGDRVTITCRASQGISSALAWYQQKPGKAPKLLIYSASYRYTGVPSRFSGSGSGTDFTFTISSLQPEDIATYYCQQRYSLWRTFGQGTKLEIK
Turning to B8, the “Fluorescence Signal Value” worked out at 6960 in [7]; 7100 in experiment [8]; 5310 in experiment [9]; 6040 in experiment [10]; 6270 in experiment [11]. In addition, the Kd was 386 pM in experiment [1] and 663 pM in experiment [2].

B9: Evolocumab (antibody, V domains shown)
VH: QVQLVQSGAEVKKPGASVKVSCKASGYTLTSYGISWVRQAPGQGLEWMGWVSFYNGNTNYAQKLQGRGTMTTDPSTSTAYMELRSLRSDDTAVYYCARGYGMDVWGQGTTVTVSS
VL: QSALTQPASVSGSPGQSITISCTGTSSDVGGYNSVSWYQQHPGKAPKLMIYEVSNRPSGVSNRFSGSKSGNTASLTISGLQAEDEADYYCNSYTSTSMVFGGGTKLTVL
As for B9, the “Fluorescence Signal Value” in experiment [7] was determined as 6810. This molecule returned a Kd in experiment [1] of 1030 pM. Moreover, binding in experiment [2] was put at a Kd of 114000 pM. Further, the “Fluorescence Signal Value” in experiment [8] came to 6990. In experiment [9], the “Fluorescence Signal Value” amounted to 5100. In addition, in experiment [3], the “BODIPY-LDL uptake … 4.2 nM, replicate 1” value was 0.351; the “BODIPY-LDL uptake … 4.2 nM, replicate 2” value is 0.36; the “BODIPY-LDL uptake … 16.8 nM, replicate 1” value was 0.355; the “BODIPY-LDL uptake … 16.8 nM, replicate 2” value is 0.363. For the same molecule, in [3], the “BODIPY-LDL uptake … 66.7 nM, replicate 1” value was 0.724 and the “BODIPY-LDL uptake … 66.7 nM, replicate 2” value was found to be 0.778. Moreover, in experiment [10], the “Fluorescence Signal Value” is 4800. The “Fluorescence Signal Value” in experiment [11] was determined as 5780.
